Source: patent US20150376252A1 (VAN ANDEL RESEARCH INSTITUTE, published 2015)
Read-outs that look alike come from different tables or passages of the source.

B5: Fz4-YFP-N (full-length human Fz4 with YFP residues 1-158 at the C-terminus) (receptor, UniProt Q9ULV1 37-537, looked up)
chain: FGDEEERRCDPIRISMCQNLGYNVTKMPNLVGHELQTDAELQLTTFTPLIQYGCSSQLQFFLCSVYVPMCTEKINIPIGPCGGMCLSVKRRCEPVLKEFGFAWPESLNCSKFPPQNDHNHMCMEGPGDEEVPLPHKTPIQPGEECHSVGTNSDQYIWVKRSLNCVLKCGYDAGLYSRSAKEFTDIWMAVWASLCFISTAFTVLTFLIDSSRFSYPERPIIFLSMCYNIYSIAYIVRLTVGRERISCDFEEAAEPVLIQEGLKNTGCAIIFLLMYFFGMASSIWWVILTLTWFLAAGLKWGHEAIEMHSSYFHIAAWAIPAVKTIVILIMRLVDADELTGLCYVGNQNLDALTGFVVAPLFTYLVIGTLFIAAGLVALFKIRSNLQKDGTKTDKLERLMVKIGVFSVLYTVPATCVIACYFYEISNWALFRYSADDSNMAVEMLKIFMSLLVGITSGMWIWSAKTLHTWQKCSNRLVNSGKVKREKRGNGWVKPGKGSETVV
notes: whole, on cells; also called YFP-N-tagged Fz4; not shown: YFP-N, residues 1-158 of YFP

Experiments:
[1] = target: T1, MBP-Norrin (maltose binding protein fused to the N-terminus of human Norrin residues 25-133, wild-type) (human); test: three-step biolayer interferometry: Lrp6 BP3-4 on MBP-Norrin pre-bound to Fz4-FcH6 sensors
[2] = target: biotinylated MBP-Norrin (human); test: AlphaScreen luminescence proximity assay
[3] = target: T2, Fz4-YFP (full-length human Fz4 with yellow fluorescent protein at the C-terminus) (human, UniProt Q9ULV1 37-537); test: static BRET in transfected COS-1 cells
T2 construct: whole, on cells; also called YFP-tagged Fz4; not shown: YFP
T2 sequence (looked up): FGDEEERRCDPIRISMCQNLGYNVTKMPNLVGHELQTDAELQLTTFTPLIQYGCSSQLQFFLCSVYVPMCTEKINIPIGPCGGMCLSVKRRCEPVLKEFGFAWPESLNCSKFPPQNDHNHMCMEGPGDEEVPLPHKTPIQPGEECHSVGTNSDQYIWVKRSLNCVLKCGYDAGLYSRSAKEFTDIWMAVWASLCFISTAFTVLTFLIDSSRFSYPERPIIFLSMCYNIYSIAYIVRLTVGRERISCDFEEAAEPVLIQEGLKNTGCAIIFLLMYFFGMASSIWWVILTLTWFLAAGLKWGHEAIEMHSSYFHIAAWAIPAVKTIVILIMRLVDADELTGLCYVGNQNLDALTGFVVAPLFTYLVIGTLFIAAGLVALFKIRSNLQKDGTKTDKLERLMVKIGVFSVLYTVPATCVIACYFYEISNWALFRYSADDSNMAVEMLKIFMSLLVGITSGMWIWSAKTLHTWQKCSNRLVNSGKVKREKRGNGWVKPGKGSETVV

[4] = target: T3, Fz4-YFP-C (full-length human Fz4 with YFP residues 159-239 at the C-terminus) (human, UniProt Q9ULV1 37-537); test: split-YFP BRET assay (FIG. 6D)
T3 construct: whole, on cells; also called YFP-C-tagged Fz4; not shown: YFP-C, residues 159-239 of YFP
T3 sequence (looked up): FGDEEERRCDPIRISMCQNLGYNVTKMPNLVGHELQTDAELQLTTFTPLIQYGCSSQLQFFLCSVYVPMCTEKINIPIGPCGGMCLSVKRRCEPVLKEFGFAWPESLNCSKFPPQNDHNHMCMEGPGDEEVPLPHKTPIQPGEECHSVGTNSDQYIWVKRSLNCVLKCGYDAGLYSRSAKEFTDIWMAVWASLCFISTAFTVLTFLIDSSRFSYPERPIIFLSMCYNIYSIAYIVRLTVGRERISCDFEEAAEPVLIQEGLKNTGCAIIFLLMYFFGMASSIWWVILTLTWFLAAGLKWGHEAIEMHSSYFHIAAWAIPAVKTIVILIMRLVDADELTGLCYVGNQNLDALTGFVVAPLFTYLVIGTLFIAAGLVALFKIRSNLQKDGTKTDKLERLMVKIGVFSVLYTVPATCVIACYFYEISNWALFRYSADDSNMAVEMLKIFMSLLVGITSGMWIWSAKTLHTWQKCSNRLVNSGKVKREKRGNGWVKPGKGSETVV

[5] = target: B5; test: split-YFP BRET assay (FIG. 6D)
[6] = target: T4, Fz4-Rlu (full-length human Fz4 with Renilla luciferase at the C-terminus) (human, UniProt Q9ULV1 37-537); test: saturation BRET in transfected COS-1 cells
T4 construct: whole, on cells; also called Rlu-tagged Fz4; not shown: Renilla luciferase (Rlu)
T4 sequence (looked up): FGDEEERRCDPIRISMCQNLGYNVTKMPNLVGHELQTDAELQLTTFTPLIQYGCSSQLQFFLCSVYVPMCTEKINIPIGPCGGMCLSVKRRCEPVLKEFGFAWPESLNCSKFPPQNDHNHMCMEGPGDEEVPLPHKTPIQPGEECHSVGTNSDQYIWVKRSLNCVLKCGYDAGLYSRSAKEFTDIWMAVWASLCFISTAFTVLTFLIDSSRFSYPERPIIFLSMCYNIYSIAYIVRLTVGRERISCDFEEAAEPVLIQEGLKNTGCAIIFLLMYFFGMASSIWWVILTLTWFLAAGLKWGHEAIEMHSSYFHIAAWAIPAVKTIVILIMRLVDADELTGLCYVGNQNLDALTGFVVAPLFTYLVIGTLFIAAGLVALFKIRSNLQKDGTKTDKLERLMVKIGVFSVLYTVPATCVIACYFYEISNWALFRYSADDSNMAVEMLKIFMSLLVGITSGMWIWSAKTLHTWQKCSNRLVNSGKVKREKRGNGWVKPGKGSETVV

[7] = target: biotinylated MBP-Norrin (human); test: AlphaScreen saturation binding curve; binding avidity of dimer to dimer (FIG. 1E)
[8] = target: T1, MBP-Norrin (maltose binding protein …); test: biolayer interferometry; binding avidity of dimer to dimer (FIG. 8A)
[9] = target: T3, Fz4-YFP-C (full-length human Fz4 with …); test: split-YFP complementation: fluorescence microscopy, emission spectrum, anisotropy
[10] = target: T5, MBP-Norrin K54E/R109E (human); test: AlphaScreen competition: unlabeled mutant MBP-Norrin against b-DKK1 peptide on H8-Lrp6 BP1-2
T5 construct: MBP tagged mutant purified like the wild-type; also called K54E/R109E double mutant

[11] = target: T1, MBP-Norrin (maltose binding protein …); test: calculated from the homologous competition assay (FIG. 4B, 4C); Kd derived from the same homologous competition
[12] = target: biotinylated MBP-Norrin (human); test: AlphaScreen luminescence proximity assay; remark: listed apart in the source
[13] = target: T1, MBP-Norrin (maltose binding protein …); test: biolayer interferometry, Fz8-FcH6 on the sensor, MBP-Norrin in solution
[14] = target: T6, Tspan12-YFP (human Tspan12 with YFP at the C-terminus) (human, UniProt O95859 1-305); test: static BRET in transfected COS-1 cells
T6 construct: whole, on cells; also called YFP-tagged Tspan12; not shown: YFP
T6 sequence (looked up): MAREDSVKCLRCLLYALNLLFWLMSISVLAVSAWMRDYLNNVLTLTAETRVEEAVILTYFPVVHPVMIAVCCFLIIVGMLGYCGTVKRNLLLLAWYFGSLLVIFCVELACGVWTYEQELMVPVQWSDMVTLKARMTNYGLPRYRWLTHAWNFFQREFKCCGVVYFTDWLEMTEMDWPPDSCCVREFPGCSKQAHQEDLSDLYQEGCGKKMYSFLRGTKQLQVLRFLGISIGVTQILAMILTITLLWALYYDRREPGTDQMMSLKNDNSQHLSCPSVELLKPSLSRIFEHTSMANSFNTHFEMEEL

[15] = target: T2, Fz4-YFP (full-length human Fz4 with …); test: static BRET in transfected COS-1 cells; remark: listed apart in the source

B1: Lrp6 BP3-4 (Lrp6 extracellular beta-propeller domains 3 and 4) (receptor)
chain: VPEAFLLFSRRADIRRISLETNNNNVAIPLTGVKEASALDFDVTDNRIYWTDISLKTISRAFMNGSALEHVVEFGLDYPEGMAVDWLGKNLYWADTGTNRIEVSKLDGQHRQVLVWKDLDSPRALALDPAEGFMYWTEWGGKPKIDRAAMDGSERTTLVPNVGRANGLTIDYAKRRLYWTDLDTNLIESSNMLGLNREVIADDLPHPFGLTQYQDYIYWTDWSRRSIERANKTSGQNRTIIQGHLDYVMDILVFHSSRQSGWNECASSNGHCSHLCLAVPVGGFVCGCPAHYSLNADNRTCSAPTTFLLFSQKSAINRMVIDEQQSPDIILPIHSLRNVRAIDYDPLDKQLYWIDSRQNMIRKAQEDGSQGFTVVVSSVPSQNLEIQPYDLSIDIYSRYIYWTCEATNVINVTRLDGRSVGVVLKGEQDRPRAVVVNPEKGYMYFTNLQERSPKIERAALDGTEREVLFFSGLSKPIALALDSRLGKLFWADSDLRRIESSDLSGANRIVLEDSNILQPVGLTVFENWLYWIDKQQQMIEKIDMTGREGRTKVQARIAQLSDIHAVKELNLQEYRQHPCAQDNGGCSHICLVKGDGTTRCSCPMHLVLLQDELSCG
notes: domain: β-propeller domains 3-4 (BP3-4); not shown: His8 tag (His8 tagged Lrp6 ECD proteins)
binding result [1]: no binding (tested: 40 µg/ml) | binding result [2]: no binding

B2: Tspan12-Rlu (human Tspan12 with Renilla luciferase at the C-terminus) (other, UniProt O95859 1-305, looked up)
chain: MAREDSVKCLRCLLYALNLLFWLMSISVLAVSAWMRDYLNNVLTLTAETRVEEAVILTYFPVVHPVMIAVCCFLIIVGMLGYCGTVKRNLLLLAWYFGSLLVIFCVELACGVWTYEQELMVPVQWSDMVTLKARMTNYGLPRYRWLTHAWNFFQREFKCCGVVYFTDWLEMTEMDWPPDSCCVREFPGCSKQAHQEDLSDLYQEGCGKKMYSFLRGTKQLQVLRFLGISIGVTQILAMILTITLLWALYYDRREPGTDQMMSLKNDNSQHLSCPSVELLKPSLSRIFEHTSMANSFNTHFEMEEL
notes: whole, on cells; also called Rlu-tagged Tspan12; not shown: Renilla luciferase (Rlu)
binding result [3]: binds | binding result [4]: binds | binding result [5]: binds

B3: CCK2R-YFP (receptor, UniProt P32239 1-447, looked up)
chain: MELLKLNRSVQGTGPGPGASLCRPGAPLLNSSSVGNLSCEPPRIRGAGTRELELAIRITLYAVIFLMSVGGNMLIIVVLGLSRRLRTVTNAFLLSLAVSDLLLAVACMPFTLLPNLMGTFIFGTVICKAVSYLMGVSVSVSTLSLVAIALERYSAICRPLQARVWQTRSHAARVIVATWLLSGLLMVPYPVYTVVQPVGPRVLQCVHRWPSARVRQTWSVLLLLLLFFIPGVVMAVAYGLISRELYLGLRFDGDSDSDSQSRVRNQGGLPGAVHQNGRCRPETGAVGEDSDGCYVQLPRSRPALELTALTAPGPGSGSRPTQAKLLAKKRVVRMLLVIVVLFFLCWLPVYSANTWRAFDGPGAHRALSGAPISFIHLLSYASACVNPLVYCFMHRRFRQACLETCARCCPRPPRARPRALPDEDPPTPSIASLSRLSYTTISTLGPG
notes: whole, on cells; Negative control of the saturation BRET; also called CCK2R-YFP, an unrelated seven-transmembrane receptor; not shown: YFP
binding result [6]: no binding (tested: YFP/Rlu about 33 (ratio))

B4: Fz4-FcH6 (human Frizzled 4 CRD, residues 40-164, fused to Fc and His6 tags) (Fc fusion)
chain: EEERRCDPIRISMCQNLGYNVTKMPNLVGHELQTDAELQLTTFTPLIQYGCSSQLQFFLCSVYVPMCTEKINIPIGPCGGMCLSVKRRCEPVLKEFGFAWPESLNCSKFPPQNDHNHMCMEGPGD
notes: range 40-164; also called Fz4 CRD-FcH6; Fz4-FcH6 dimer; not shown: Fc tag of the pHL-IgL-FcH6 vector; His6 tag (six histidines)
Kd [7]: ~11 nM | Kd [8]: ~5 nM

B5
binding result [9]: binds

B6: His8-tagged Lrp6 BP1-2 (Lrp6 extracellular beta-propeller domains 1 and 2) (receptor, UniProt O75581 20-631, looked up)
chain: APLLLYANRRDLRLVDATNGKENATIVVGGLEDAAAVDFVFSHGLIYWSDVSEEAIKRTEFNKTESVQNVVVSGLLSPDGLACDWLGEKLYWTDSETNRIEVSNLDGSLRKVLFWQELDQPRAIALDPSSGFMYWTDWGEVPKIERAGMDGSSRFIIINSEIYWPNGLTLDYEEQKLYWADAKLNFIHKSNLDGTNRQAVVKGSLPHPFALTLFEDILYWTDWSTHSILACNKYTGEGLREIHSDIFSPMDIHAFSQQRQPNATNPCGIDNGGCSHLCLMSPVKPFYQCACPTGVKLLENGKTCKDGATELLLLARRTDLRRISLDTPDFTDIVLQLEDIRHAIAIDYDPVEGYIYWTDDEVRAIRRSFIDGSGSQFVVTAQIAHPDGIAVDWVARNLYWTDTGTDRIEVTRLNGTMRKILISEDLEEPRAIVLDPMVGYMYWTDWGEIPKIERAALDGSDRVVLVNTSLGWPNGLALDYDEGKIYWGDAKTDKIEVMNTDGTGRRVLVEDKIPHIFGFTLLGDYVYWTDWQRRSIERVHKRSAEREVIIDQLPDLMGLKATNVHRVIGSNPCAEENGGCSHLCLYRPQGLRCACPIGFELISDMKTCIVPE
notes: domain: β-propeller domains 1-2 (BP1-2); for the separate Fc constructs BP1 is 20-325 and BP2 is 325-631; also called H8-Lrp6 BP1-2; not shown: His8 tag (eight histidines)
binding result [10]: no binding (tested: 1.805 µM) | Kd [11]: ~450 nM

B7: Fz8-FcH6 (Frizzled 8 CRD, residues 28-155, fused to Fc and His6 tags) (Fc fusion)
chain: ASAKELACQEITVPLCKGIGYNYTYMPNQFNHDTQDEAGLEVHQFWPLVEIQCSPDLKFFLCSMYTPICLEDYKKPLPPCRSVCERAKAGCAPLMRQYGFAWPDRMRCDRLPEQGNPDTLCMDYNRTD
notes: range 28-155; also called Fz8 CRD; not shown: Fc tag of the pHL-IgL-FcH6 vector; His6 tag (six histidines)
binding result [12]: no binding | binding result [13]: no binding

B8: Soluble-Rlu (enzyme)
chain: MTSKVYDPEQRKRMITGPQWWARCKQMNVLDSFINYYDSEKHAENAVIFLHGNAASSYLWRHVVPHIEPVARCIIPDLIGMGKSGKSGNGSYRLLDHYKYLTAWFELLNLPKKIIFVGHDWGACLAFHYSYEHQDKIKAIVHAESVVDVIESWDEWPDIEEDIALIKSEEGEKMVLENNFFVETMLPSKIMRKLEPEEFAAYLEPFKEKGEVRRPTLSWPREIPLVKGGKPDVVQIVRNYNAYLRASDDLPKMFIESDPGFFSNAIVEGAKKFPNTEFVKVKGLHFSQEDAPDEMGKYIKSFVERVLKNEQ
binding result [14]: no binding | binding result [15]: no binding
